The results in this text go back to paper PMC10560287.

In this experiment the target is GmILPA1-cYFP (soybean (Glycine max)). As to the kind of experiment: split reporter (BiFC, NanoBiT); BiFC with nYFP and cYFP fusions co-infiltrated into N. benthamiana leaves together with P19; confocal microscopy; leaves in white light or exposed to 1 h of UV-B (21 μmol m^-2 s^-1).
GmILPA1-cYFP (soybean (Glycine max)), sequence (main, as listed by the source): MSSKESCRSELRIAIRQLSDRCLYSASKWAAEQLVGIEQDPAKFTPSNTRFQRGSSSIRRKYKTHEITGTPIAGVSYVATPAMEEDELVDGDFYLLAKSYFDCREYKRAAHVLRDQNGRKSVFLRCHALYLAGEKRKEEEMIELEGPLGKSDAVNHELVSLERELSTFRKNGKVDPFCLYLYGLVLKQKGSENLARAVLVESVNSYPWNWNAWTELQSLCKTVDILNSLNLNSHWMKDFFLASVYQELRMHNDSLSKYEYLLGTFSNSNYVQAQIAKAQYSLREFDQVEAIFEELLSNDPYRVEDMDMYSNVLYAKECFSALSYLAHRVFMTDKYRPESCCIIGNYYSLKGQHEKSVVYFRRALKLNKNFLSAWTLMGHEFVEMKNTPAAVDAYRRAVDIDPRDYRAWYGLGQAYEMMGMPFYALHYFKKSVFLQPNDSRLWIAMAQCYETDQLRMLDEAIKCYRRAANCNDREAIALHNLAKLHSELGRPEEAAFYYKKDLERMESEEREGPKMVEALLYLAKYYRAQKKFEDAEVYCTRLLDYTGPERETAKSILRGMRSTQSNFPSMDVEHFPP

In turn, GmGA2ox-like-nYFP (enzyme) showed a fold change of the relative BiFC fluorescence intensity in the cytoplasm, UV-B against white light of 3 fold.
